Experimental data reported in publication PMC7954794, “Protein context shapes the specificity of SH3 domain-mediated interactions in vivo” (Nature Communications, 2021).

System: growth of yeast strains under 51 stress conditions
Test: Growth assays in 51 stress conditions (Fig. 1E-F, S2D, S5B)
Type: cell-based, Saccharomyces cerevisiae
Design: key to Growth (Fig. S2D) / growth of ABP1 SH3-swapped strains in stress condition: log2 colony size, average of median per strain (growth score)
Conditions: ABP1 SH3-swapped strains
Procedure, shortened: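 Colony sizes at 74 h on 51 stress media (37 °C) were log2 transformed, corrected for plate effects, and averaged across two plates as per-plate medians (growth score). Strains arrayed in 12 replicates with WT border, grown first on YPD for two days at 30 °C.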

B1: LSB3 (protein)
chain: MGINNPIPRSLKSETKKAAKILASFVKPNQVFGADQVIPPDVLKRAKGLAIITILKAGFLFSGRAGSGVIVARLKDGTWSAPSAIAMAGAGAGGMVGIELTDFVFILNTQDAVKSFSEFGTITLGGNVSVSAGPLGRSAEAAASASAGGVAAVFAYSKSKGLFAGVSVEGSAIIERREANRKFYGDNCTAKMILSGRIRPPPAVDPLFRVLESRAFNYRPSNGGRGSFDDDEDDYYDDDDYYNDIPSSFSSTDASSTRPNTRSTRRRAQSGSRYTFDDDDDDDDYGTGYSRNSRLAPTNSGGSGGKLDDPSGASSYYASHRRSGTAQSRARSSRNRWADDEYDDYDDDYESGYRRGNGRDRTKDREVDDLSNRFSKSRISSASTPQTSQGRFTAPTSPSTSSPKAVALYSFAGEESGDLPFRKGDVITILKKSDSQNDWWTGRVNGREGIFPANYVELV
modifications: left off: DHFR F[3], C-terminal, kept
Growth (Fig. S2D) (Bathophenanthroline.0.1uM): 10.8613 | Growth (Fig. S2D) (Bathophenanthroline.10uM): 10.7004 | Growth (Fig. S2D) (Bathophenanthroline.1uM): 10.8044 | Growth (Fig. S2D) (CaCl2.100mM): 10.8415 | Growth (Fig. S2D) (CaCl2.250mM): 10.752 | Growth (Fig. S2D) (CaCl2.500mM): 10.2861 | Growth (Fig. S2D) (Caffein.10mM): 10.1331 | Growth (Fig. S2D) (Caffein.2mM): 11.0359 | Growth (Fig. S2D) (CdCl2.100uM): 9.517 | Growth (Fig. S2D) (CdCl2.10uM): 10.8992 | Growth (Fig. S2D) (CdCl2.50uM): 9.9 | Growth (Fig. S2D) (CuSO4.1mM): 10.501 | Growth (Fig. S2D) (CuSO4.5mM): 7.988 | Growth (Fig. S2D) (Cycloheximide.0.05.uM): 11.1308 | Growth (Fig. S2D) (Cycloheximide.0.2.uM): 10.6758 | Growth (Fig. S2D) (Cycloheximide.0.5.uM): 10.143 | Growth (Fig. S2D) (DMSO.2.): 11.0244 | Growth (Fig. S2D) (DMSO.6.): 9.802 | Growth (Fig. S2D) (DMSO.8.): 9.136 | Growth (Fig. S2D) (Ethanol.2.): 10.7759 | Growth (Fig. S2D) (Ethanol.6.): 10.3185 | Growth (Fig. S2D) (Ethanol.8.): 10.0689 | Growth (Fig. S2D) (Galactose.2.): 10.7876 | Growth (Fig. S2D) (Glycerol.2.): 9.905 | Growth (Fig. S2D) (Hydroxyurea.25mM): 10.8417 | Growth (Fig. S2D) (Hygromycin.190uM): 11 | Growth (Fig. S2D) (Hygromycin.19uM): 10.9944 | Growth (Fig. S2D) (Hygromycin.95uM): 11.0899 | Growth (Fig. S2D) (MMS.0.004.): 10.9826 | Growth (Fig. S2D) (MMS.0.02.): 10.7326 | Growth (Fig. S2D) (MMS.0.04.): 10.0186 | Growth (Fig. S2D) (Menadione.100uM): 10.5511 | Growth (Fig. S2D) (Menadione.200uM): 10.5189 | Growth (Fig. S2D) (Menadione.50uM): 10.8398 | Growth (Fig. S2D) (NaCl.0.25M): 10.7826 | Growth (Fig. S2D) (NaCl.1M): 9.561 | Growth (Fig. S2D) (Nitroquinoline.10uM): 10.7432 | Growth (Fig. S2D) (Nitroquinoline.50uM): 10.6203 | Growth (Fig. S2D) (Nystatin.0.01uM): 11.0314 | Growth (Fig. S2D) (Nystatin.0.1uM): 11.0473 | Growth (Fig. S2D) (Raffinose.2.): 11.0154 | Growth (Fig. S2D) (Rapamycin.10nM): 9.815 | Growth (Fig. S2D) (Rapamycin.50nM): 9.462 | Growth (Fig. S2D) (SC.pH3): 10.4429 | Growth (Fig. S2D) (SC.pH6): 11.0914 | Growth (Fig. S2D) (SDS.0.01.): 10.9846 | Growth (Fig. S2D) (SDS.0.02.): 11.0384 | Growth (Fig. S2D) (SDS.0.05.): 10.8514 | Growth (Fig. S2D) (Sorbitol.10mM): 10.9664 | Growth (Fig. S2D) (Sorbitol.1mM): 11.0248 | Growth (Fig. S2D) (Sorbitol.5mM): 10.914

B2: MYO3 (protein, UniProt P36006 1-1272, looked up)
Myosin-3: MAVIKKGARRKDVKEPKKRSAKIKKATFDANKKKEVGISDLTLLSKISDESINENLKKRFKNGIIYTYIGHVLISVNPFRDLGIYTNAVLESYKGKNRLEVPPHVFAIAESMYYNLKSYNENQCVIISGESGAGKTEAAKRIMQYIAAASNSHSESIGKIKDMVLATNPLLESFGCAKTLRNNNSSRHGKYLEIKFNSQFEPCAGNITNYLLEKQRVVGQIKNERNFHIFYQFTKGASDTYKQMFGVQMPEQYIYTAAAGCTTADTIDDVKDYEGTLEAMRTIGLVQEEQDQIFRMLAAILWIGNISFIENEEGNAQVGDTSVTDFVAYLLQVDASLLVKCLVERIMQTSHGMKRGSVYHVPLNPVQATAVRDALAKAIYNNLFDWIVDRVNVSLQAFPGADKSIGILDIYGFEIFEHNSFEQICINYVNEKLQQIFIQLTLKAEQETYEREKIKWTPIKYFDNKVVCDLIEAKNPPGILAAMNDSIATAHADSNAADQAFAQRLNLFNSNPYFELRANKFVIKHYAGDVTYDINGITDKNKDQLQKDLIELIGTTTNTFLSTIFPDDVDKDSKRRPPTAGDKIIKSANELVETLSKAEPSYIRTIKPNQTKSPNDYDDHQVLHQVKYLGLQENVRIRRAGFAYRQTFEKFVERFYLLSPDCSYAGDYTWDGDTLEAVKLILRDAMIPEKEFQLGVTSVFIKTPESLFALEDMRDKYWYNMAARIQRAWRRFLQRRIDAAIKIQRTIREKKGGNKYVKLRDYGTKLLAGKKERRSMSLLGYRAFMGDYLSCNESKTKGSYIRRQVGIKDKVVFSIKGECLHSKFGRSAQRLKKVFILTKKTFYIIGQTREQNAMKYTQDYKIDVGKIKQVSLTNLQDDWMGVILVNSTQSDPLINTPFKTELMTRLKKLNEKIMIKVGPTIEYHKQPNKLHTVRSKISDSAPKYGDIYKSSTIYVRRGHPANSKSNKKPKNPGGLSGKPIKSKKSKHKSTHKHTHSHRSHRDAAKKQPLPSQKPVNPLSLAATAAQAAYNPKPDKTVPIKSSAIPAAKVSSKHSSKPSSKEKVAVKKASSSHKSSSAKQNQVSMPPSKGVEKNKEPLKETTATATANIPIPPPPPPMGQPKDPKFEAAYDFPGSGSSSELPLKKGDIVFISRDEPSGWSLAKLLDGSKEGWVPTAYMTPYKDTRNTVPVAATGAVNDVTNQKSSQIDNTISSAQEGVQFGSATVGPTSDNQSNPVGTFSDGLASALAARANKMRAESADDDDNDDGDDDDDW
Growth (Fig. S2D) (Bathophenanthroline.0.1uM): 10.752 | Growth (Fig. S2D) (Bathophenanthroline.10uM): 10.5714 | Growth (Fig. S2D) (Bathophenanthroline.1uM): 10.7108 | Growth (Fig. S2D) (CaCl2.250mM): 10.7527 | Growth (Fig. S2D) (CaCl2.500mM): 10.1691 | Growth (Fig. S2D) (Caffein.10mM): 9.976 | Growth (Fig. S2D) (Caffein.2mM): 10.8692 | Growth (Fig. S2D) (CdCl2.100uM): 9.202 | Growth (Fig. S2D) (CdCl2.10uM): 10.8049 | Growth (Fig. S2D) (CdCl2.50uM): 9.536 | Growth (Fig. S2D) (CuSO4.1mM): 10.0301 | Growth (Fig. S2D) (CuSO4.5mM): 7.358 | Growth (Fig. S2D) (Cycloheximide.0.05.uM): 11.0001 | Growth (Fig. S2D) (Cycloheximide.0.2.uM): 10.4991 | Growth (Fig. S2D) (Cycloheximide.0.5.uM): 9.9209 | Growth (Fig. S2D) (DMSO.2.): 10.998 | Growth (Fig. S2D) (DMSO.6.): 9.853 | Growth (Fig. S2D) (DMSO.8.): 9.243 | Growth (Fig. S2D) (Ethanol.2.): 10.6338 | Growth (Fig. S2D) (Ethanol.6.): 10.0843 | Growth (Fig. S2D) (Ethanol.8.): 9.865 | Growth (Fig. S2D) (Galactose.2.): 10.6373 | Growth (Fig. S2D) (Glycerol.2.): 8.89 | Growth (Fig. S2D) (Hydroxyurea.25mM): 10.6592 | Growth (Fig. S2D) (Hygromycin.190uM): 10.9229 | Growth (Fig. S2D) (Hygromycin.19uM): 10.8956 | Growth (Fig. S2D) (Hygromycin.95uM): 10.9112 | Growth (Fig. S2D) (MMS.0.004.): 10.8802 | Growth (Fig. S2D) (MMS.0.02.): 10.4477 | Growth (Fig. S2D) (MMS.0.04.): 9.333 | Growth (Fig. S2D) (Menadione.100uM): 10.5316 | Growth (Fig. S2D) (Menadione.200uM): 10.3415 | Growth (Fig. S2D) (Menadione.50uM): 10.7191 | Growth (Fig. S2D) (NaCl.0.25M): 10.6458 | Growth (Fig. S2D) (NaCl.1M): 9.0624 | Growth (Fig. S2D) (Nitroquinoline.10uM): 10.5815 | Growth (Fig. S2D) (Nitroquinoline.50uM): 10.5108 | Growth (Fig. S2D) (Nystatin.0.01uM): 10.9576 | Growth (Fig. S2D) (Nystatin.0.1uM): 10.9795 | Growth (Fig. S2D) (Raffinose.2.): 10.915 | Growth (Fig. S2D) (Rapamycin.10nM): 9.682 | Growth (Fig. S2D) (Rapamycin.50nM): 9.448 | Growth (Fig. S2D) (SC.pH3): 10.2912 | Growth (Fig. S2D) (SC.pH6): 10.9261 | Growth (Fig. S2D) (SDS.0.01.): 10.9246 | Growth (Fig. S2D) (SDS.0.02.): 10.9437 | Growth (Fig. S2D) (SDS.0.05.): 10.7731 | Growth (Fig. S2D) (Sorbitol.10mM): 10.9112 | Growth (Fig. S2D) (Sorbitol.1mM): 11.0073 | Growth (Fig. S2D) (Sorbitol.5mM): 10.8833
